Positions count from the first letter of the chain named. Where two headings read alike, the source gives them in different places.

From patent publication US20230034768A1 (BIOSION, published 2023) come the findings set out here.

Assay [1] deals with T1, biotin-labeled human RANKL-Fc protein (prepared in house, SEQ ID NO.: 40) (human, biotin-labeled (sites not given)).
T1 construct: also called RANKL-Fc-biotin
The assay is described as follows: capture ELISA: captured antibody, biotin-labeled human RANKL-Fc, OD(450-630). The method, then:
(§1) Plates were washed once with wash buffer (PBS+0.05% v/v Tween-20, PBST) and then blocked with 200 μl/well blocking buffer (5% w/v non-fatty milk in PBST) for 2 hours at 37° C. […] After a final wash, plates were incubated with 100 μl/well ELISA substrate TMB (Innoreagents, Cat #TMB-S-002) at room temperature. The reaction was stopped in 3-10 minutes with 50 μl/well 1M H₂SO₄, and the absorbance of each well was read on a microplate reader using dual wavelengths mode with 450 nm for TMB and 630 nm as the reference wavelength. The OD (450-630) values were plotted against antibody concentration. Data were analyzed using Graphpad Prism software and EC₅₀ values were reported.
(§2) Cell supernatants were harvested after six days in shaking flasks, spun down to pellet cells, and then chimeric antibodies were purified from cell supernatants as described above. The purified antibodies were tested in the capture ELISA, competitive ELISA assay and Octet affinity test following the protocols in the foregoing Examples.

Assay [2] concerns the target T2, human RANKL-his protein (prepared in-house with SEQ ID NO: 43) (human, UniProt O14788 136-317).
T2 construct: also called recombinant human RANKL-his
T2 chain: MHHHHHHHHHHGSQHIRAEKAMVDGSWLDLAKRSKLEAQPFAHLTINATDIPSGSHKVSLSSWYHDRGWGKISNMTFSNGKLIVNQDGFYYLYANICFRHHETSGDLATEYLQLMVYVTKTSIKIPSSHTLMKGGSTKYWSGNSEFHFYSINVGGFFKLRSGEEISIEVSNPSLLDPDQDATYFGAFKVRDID
The assay is described as follows: Biacore T200 SPR, antibody captured by anti-human IgG, human RANKL-his in flow, 1:1 fit. The method, then: (§3) Briefly, goat anti-human IgG (GE healthcare, Cat #BR100839, Human Antibody Capture Kit) was covalently linked to a CM5 chip (carboxy methyl dextran coated chip from GE healthcare #BR10030) via primary amines, using a standard amine coupling kit provided by Biacore. Un-reacted moieties on the biosensor surface were blocked with ethanolamine. […] The antigen-antibody association kinetics was followed for 2 minutes and the dissociation kinetics was followed for 10 minutes. The association and dissociation curves were fit to a 1:1 Langmuir binding model using BIAcore evaluation software.

Assay [3] has as its target T3, Recombinant human RANKL-his protein (R&D, Cat #6449-TEC-010) (human, UniProt O14788 140-317, limits assumed).
T3 sequence (looked up): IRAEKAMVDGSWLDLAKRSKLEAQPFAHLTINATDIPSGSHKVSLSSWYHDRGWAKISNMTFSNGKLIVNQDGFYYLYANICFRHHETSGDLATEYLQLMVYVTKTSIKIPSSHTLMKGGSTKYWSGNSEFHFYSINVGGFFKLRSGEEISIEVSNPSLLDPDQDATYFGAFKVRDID
The assay is described as follows: cell-based or functional assay.

Assay [4] deals with T1, biotin-labeled human RANKL-Fc protein …. The assay is described as follows: competitive ELISA: antibody blocks biotin-labeled human RANKL-Fc binding to coated human RANK-Fc. The procedure: (§4) Briefly, human RANK-Fc proteins (prepared in house, SEQ ID NO.: 41) were coated on 96-well micro plates at 2.0 μg/mL in PBS, 100 μl/well, and incubated overnight at 4° C. The next day, plates were washed with wash buffer (PBS+0.05% w/v Tween-20, PBST), and blocked with 5% w/v non-fatty milk in PBST, 200 μl/well, for 2 hours at 37° C.
(§5) Plates were washed 4 times using wash buffer, and added and incubated with 100 μl/well of streptavidin conjugated HRP (1:10000 dilution in PBST buffer, Jackson ImmunoResearch Laboratories, Inc., Cat #016-030-084) for 40 minutes at 37° C. Plates were washed again using wash buffer. Finally, TMB was added and the reaction was stopped using 1M H₂SO₄, and the absorbance of each well was read on a microplate reader using dual wavelengths mode with 450 nm for TMB and 630 nm as the reference wavelength. The OD (450-630) values were plotted against antibody concentration. Data were analyzed using Graphpad Prism software and IC₅₀ values were reported.

Assay [5] has the same target. The experiment in a line: capture ELISA: captured antibody, biotin-labeled human RANKL-Fc, OD(450-630). The method, then:
as §1
For the capture ELISA, 96-well micro plates were coated with 2 μg/ml goat anti-human IgG (AffiniPure Goat Anti-Human IgG, F(ab′)₂ fragment specific, Jackson Immunoresearch, Cat #109-005-097) instead of AffiniPure Goat Anti-Mouse IgG, Fcγ fragment specific, 100 μl/well.
The source holds these as a separate data set.

The target in assay [6] is T3, Recombinant human RANKL-his protein …. The assay is described as follows: cell-based or functional assay. This is another data set of the same source.
The target of assay [7] is T1, biotin-labeled human RANKL-Fc protein …. The experiment in a line: competitive ELISA: antibody blocks biotin-labeled human RANKL-Fc binding to coated benchmark denosumab.
The target of assay [8] is T4, cynomolgus monkey RANKL-his protein (prepared in-house with SEQ ID NO.:42) (cynomolgus monkey, UniProt O14788 136-317 (human entry), limits assumed).
T4 construct: also called Cynomolgus RANKL
T4 chain: T2 chain with S53T, G70A, I167V
The assay is described as follows: Biacore T200 SPR, antibody captured by anti-human IgG, cynomolgus RANKL-his in flow, 1:1 fit. The procedure:
as §3

Assay [9] has as its target T2, human RANKL-his protein (prepared …). The experiment in a line: Octet BLI, chimeric antibody at 5 ug/ml captured, human RANKL-his in solution. The procedure:
(§6) Briefly, AHC/AMC biosensors (anti-human/anti-mouse IgG Fc capture, ForteBio) were presoaked with 10 mM glycine (pH 1.5) for 3 seconds, and then dipped in a well with running buffer (0.5% w/v BSA in PBST) for 3 seconds, the soaking and dipping steps were repeated for three times. […] A new baseline was run for 180 seconds in another well with HBS-EP⁺. […] Finally, sensors were presoaked with 10 mM glycine (pH 1.5) for 3 seconds, and then dipped in a well with running buffer for 3 seconds, the soaking and dipping steps repeated for three times. The association and dissociation curves were fit to a 1:1 Langmuir binding model using Octet evaluation software.
(§7) The chimeric antibody when tested was in HBS-EP⁺ at 5 μg/ml concentration.

Assay [10] shares this target. The assay is described as follows: Octet BLI, antibody captured, human RANKL-his in solution. The procedure: as §6, §2
Assay [11] concerns the target T1, biotin-labeled human RANKL-Fc protein …. The assay is described as follows: competitive ELISA: antibody blocks biotin-labeled human RANKL-Fc binding to coated benchmark denosumab. This is another data set of the same source.
For assay [12] the target is unchanged. The assay is described as follows: competitive ELISA: antibody blocks biotin-labeled human RANKL-Fc binding to coated human RANK-Fc. This is another data set of the same source.
Assay [13] deals with T2, human RANKL-his protein (prepared …). The experiment in a line: Octet BLI, antibody from cell supernatant captured, human RANKL-his in solution. The procedure:
as §6, §7

Assay [14] concerns the target T3, Recombinant human RANKL-his protein …. The experiment in a line: cell-based or functional assay. This is another data set of the same source.
For assay [15], the target named is T2, human RANKL-his protein (prepared …). The assay is described as follows: Octet BLI, antibody captured, human RANKL-his in solution (same value as Table 2). The method, then: as §6
The target of assay [16] is T1, biotin-labeled human RANKL-Fc protein …. The assay is described as follows: capture ELISA: captured antibody, biotin-labeled human RANKL-Fc, OD(450-630). The procedure: as §1
The source holds these as a separate data set.

For assay [17] the target is unchanged. The experiment in a line: competitive ELISA: antibody blocks biotin-labeled human RANKL-Fc binding to coated human RANK-Fc. The method, then: as §4, §5
This is another data set of the same source.

The target of assay [18] is T3, Recombinant human RANKL-his protein …. The experiment in a line: cell-based or functional assay. This is another data set of the same source.
In assay [19] the target is T2, human RANKL-his protein (prepared …). The assay is described as follows: Octet BLI, antibody captured on AHC/AMC sensor, human RANKL-his in solution, 1:1 fit. The procedure:
as §6

Assay [20] deals with T1, biotin-labeled human RANKL-Fc protein …. The experiment in a line: competitive ELISA: antibody blocks biotin-labeled human RANKL-Fc binding to coated benchmark denosumab. The method, then:
The next day, plates were washed with wash buffer, and blocked with 5% w/v non-fatty milk in PBST, 200 μl/well, for 2 hours at 37° C. […] After incubation at 37° C. for 40 minutes, plates were washed 4 times using wash buffer. Then the plates were added and incubated with 100 μl Peroxidase Streptavidin (1:5000 dilution in PBST buffer, Jackson Immunoresearch, Cat #016-030-084) for 40 minutes at 37° C. Plates were washed again using wash buffer. Finally, TMB was added and the reaction was stopped using 1M H₂SO₄. The absorbance of each well was read on a microplate reader using dual wavelengths mode with 450 nm for TMB and 630 nm as the reference wavelength, and the OD (450-630) values were plotted against antibody concentration. Data were analyzed using Graphpad Prism software and IC₅₀ values were reported.
This is another data set of the same source.

B1: Chimeric D1A1 (antibody, human IgG2, kappa, V domains shown)
VH: EVQLVESGGGLVKSGGSLKLSCAASGFTFRNYAMSWVRQTPEKRLEWVAGISSGGTYTYYPDTVKGRFTISRDNARNTLFLQMSSLRSEDTAMYYCARRDYGDVYEWYFDVWGTGTTVTVSS
VL: DIVMTQSHKFMSTSVGDRVSITCKASQDVRTSIAWYQQKPGQSPNLLIYSASYRYTGVPDRFTGSGSGTDFTFTISSVQAEDLAVYYCQQHYSSPWTFGGGTKLEIKR
notes: Mouse variable regions on human IgG2 / kappa; also called chimeric antibody D1A1; chimeric D1A1 antibody
With B1, the EC50 turned out to be 624 pM in assay [1] and 257 pM in [5]. In addition, the Kd is 149 pM in assay [2], 420 pM in assay [8], < 1 pM in assay [9] and 197 pM in assay [10]. Moreover, the “IC50, RANKL-induced osteoclast differentiation of RAW264.7 cells (pNPP, OD405)” value is 1.39 nM in [3] and ~1.42 nM in assay [6]. Besides, the IC50 in assay [4] was determined as 155 pM; in [7], 441 pM; in assay [11], 473 pM; in [12], 112 pM. In [9], the koff is < 1e-07 s⁻¹. The on-rate constant (kon) in [9] was 128000 M⁻¹ s⁻¹.

B2: humanized antibody huD1A1-V5 (antibody, human IgG4 S228P, kappa, V domains shown)
VH: EVQLVESGGGLVKPGGSLRLSCAASGFTFRNYAMSWVRQAPGKGLEWVSGISSGGTYTYYPDTVKGRFTISRDNAKNSLYLQMNSLRAEDTAVYYCARRDYGDVYEWYFDVWGKGTTVTVSS
VL: DIQMTQSPSSLSASVGDRVTITCKASQDVRTSIAWYQQKPGKSPKLLIYSASYRYTGVPSRFSGSGSGTDFTFTISSLQPEDLATYYCQQHYSSPWTFGGGTKVEIKR
notes: Human IgG4 / kappa
For the molecule B2, the figures for the Kd in assay [13], in assay [2] and in assay [8] were < 1 pM, 179 pM and 414 pM, respectively. Moreover, the koff in [13] is < 1e-07 s⁻¹. In addition, the kon in assay [13] came to 120000 M⁻¹ s⁻¹. In addition, the IC50 in assay [4] amounted to 139 pM; in [7], 338 pM. This molecule returned an EC50 in [5] of 182 pM. The “IC50, RANKL-induced osteoclast differentiation of RAW264.7 cells (pNPP, OD405)” value was 1.51 nM in assay [6] and ~1.42 nM in assay [14].

B3: mouse anti-RANKL monoclonal antibody B3D8 (antibody, V domains shown)
VH: EVQLVESGGDLVKSGGSLKLSCAASGFTFSRYGMSWVRQTPDKRLEWVASISSGGTYTSYPDSVKGRFTITRDSAKNTLYLQMSSLKSEDTAMYYCARRNFITSATDCYFDVWGAGTTVTVSS
VL: DTVLTQSPATLSVTPGASVSLSCRASQSISNNLHWYQQKSHESPRLLIIYASQSISGIPSRFSGSGSGTDFTLSINSVETEDFGVYFCQQSNSWPFTFGGGTKLEIK
notes: Hybridoma-derived mouse IgG; also called Mouse B3D8
Regarding B3, the Kd in assay [15] and in [19] was 452 pM each time. Moreover, the results for the EC50 in [1] and in assay [16] were 489 pM and 162 pM, respectively. For the same molecule, the IC50 came out at 233 pM in [17] and 548 pM in assay [20]. For the same molecule, the “IC50, RANKL-induced osteoclast differentiation of RAW264.7 cells (pNPP, OD405)” value in assay [18] is 0.625 nM. In assay [19], this molecule returned a koff of 0.000277 s⁻¹. The molecule also registered a kon in assay [19] of 613000 M⁻¹ s⁻¹.
